Assays:
[1] = target: T1, GSTCDK4 (human, UniProt P11802 1-303); test: SPR
T1 chain: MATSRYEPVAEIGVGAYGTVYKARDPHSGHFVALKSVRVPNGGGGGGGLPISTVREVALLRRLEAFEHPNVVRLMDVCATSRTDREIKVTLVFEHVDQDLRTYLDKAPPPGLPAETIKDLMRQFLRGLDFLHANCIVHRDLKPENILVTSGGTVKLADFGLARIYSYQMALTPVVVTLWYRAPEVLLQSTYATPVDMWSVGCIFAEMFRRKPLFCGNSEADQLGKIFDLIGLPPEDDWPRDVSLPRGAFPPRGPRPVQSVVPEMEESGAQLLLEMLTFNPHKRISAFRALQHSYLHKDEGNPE

[2] = target: GSTCDK6 (human, UniProt Q00534 1-326); test: SPR
GSTCDK6, sequence (Q00534 whole entry): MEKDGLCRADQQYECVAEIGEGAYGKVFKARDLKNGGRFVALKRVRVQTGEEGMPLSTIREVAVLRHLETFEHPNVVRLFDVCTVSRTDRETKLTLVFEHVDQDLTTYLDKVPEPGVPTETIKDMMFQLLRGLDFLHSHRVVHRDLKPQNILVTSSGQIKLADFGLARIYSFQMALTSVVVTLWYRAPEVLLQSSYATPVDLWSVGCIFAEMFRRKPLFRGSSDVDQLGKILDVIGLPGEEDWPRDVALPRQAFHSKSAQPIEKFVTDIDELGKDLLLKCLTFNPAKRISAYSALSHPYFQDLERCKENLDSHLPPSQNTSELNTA

Kd [1]: 347 nM
Kd [2]: 7 µM
B1: Cdc37 (analyte of the SPR titrations) (natural protein)
chain: MVDYSVWDHIEVSDDEDETHPNIDTASLFRWRHQARVERMEQFQKEKEELDRGCRECKRKVAECQRKLKELEVAEGGKAELERLQAEAQQLRKEERSWEQKLEEMRKKEKSMPWNVDTLSKDGFSKSMVNTKPEKTEEDSEEVREQKHKTFVEKYEKQIKHFGMLRRWDDSQKYLSDNVHLVCEETANYLVIWCIDLEVEEKCALMEQVAHQTIVMQFILELAKSLKVDPRACFRQFFTKIKTADRQYMEGFNDELEAFKERVRGRAKLRIEKAMKEYEEEERKKRLGPGGLDPVEVYESLPEELQKCFDVKDVQMLQDAISKMDPTDAKYHMQRCIDSGLWVPNSKASEAKEGEEAGPGDPLLEAVPKTGDEKDVSV

Reference: PMC5681435 (2017)
